Experimental data as given in article PMC9482650, “Quantitative fragmentomics allow affinity mapping of interactomes” (Nature Communications, 2022).

Tests used:
Experiment in all cases: holdup assay
Parameters in all cases: key: below the threshold = too weak to quantify, mostly under pKd 3.1 to 4
Settings in all cases: plain residues with an end cap or a label only (N-terminal biotin on a linker: ado-ado)
[1] = target: T1, NHERF3_1, Q5T2W1
T1 sequence (Q5T2W1 4-100, limits assumed, looked up): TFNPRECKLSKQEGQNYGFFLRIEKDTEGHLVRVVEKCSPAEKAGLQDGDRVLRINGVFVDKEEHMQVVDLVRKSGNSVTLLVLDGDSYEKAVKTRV

[2] = target: T2, PDZD7_3, Q9H5P4
T2 sequence (Q9H5P4 857-944, limits assumed, looked up): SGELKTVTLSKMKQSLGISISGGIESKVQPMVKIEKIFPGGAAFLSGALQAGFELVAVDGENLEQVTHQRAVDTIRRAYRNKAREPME

[3] = target: DLG1_3, Q12959
[4] = target: NHERF2_2, Q15599
[5] = target: T3, TJP3_3, O95049
T3 sequence (O95049 375-456, limits assumed, looked up): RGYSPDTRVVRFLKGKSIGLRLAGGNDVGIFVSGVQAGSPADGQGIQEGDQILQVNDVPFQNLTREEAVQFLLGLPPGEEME

[6] = target: T4, TIAM2, Q8IVF5
T4 sequence (Q8IVF5 885-986, limits assumed, looked up): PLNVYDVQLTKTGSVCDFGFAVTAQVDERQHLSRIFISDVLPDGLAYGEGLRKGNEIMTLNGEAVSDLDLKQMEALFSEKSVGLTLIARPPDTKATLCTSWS

[7] = target: GIPC2, Q8TF65
[8] = target: T5, APBA1_2, Q02410
T5 sequence (Q02410 742-832, limits assumed, looked up): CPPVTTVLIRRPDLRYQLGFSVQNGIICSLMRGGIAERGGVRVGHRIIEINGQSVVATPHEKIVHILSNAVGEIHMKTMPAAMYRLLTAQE

[9] = target: NHERF4_2, Q86UT5
[10] = target: T6, APBA2_1, Q99767
T6 sequence (Q99767 563-664, limits assumed, looked up): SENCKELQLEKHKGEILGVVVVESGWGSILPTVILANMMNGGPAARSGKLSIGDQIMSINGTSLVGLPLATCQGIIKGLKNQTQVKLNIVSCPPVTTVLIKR

[11] = target: T7, GRIP1_5, Q9Y3R0
T7 sequence (Q9Y3R0 568-668, limits assumed, looked up): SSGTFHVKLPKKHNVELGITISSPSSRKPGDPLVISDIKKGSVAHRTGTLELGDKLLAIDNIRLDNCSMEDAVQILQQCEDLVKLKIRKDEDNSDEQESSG

[12] = target: T8, LNX2_3, Q8N448
T8 sequence (Q8N448 463-564, limits assumed, looked up): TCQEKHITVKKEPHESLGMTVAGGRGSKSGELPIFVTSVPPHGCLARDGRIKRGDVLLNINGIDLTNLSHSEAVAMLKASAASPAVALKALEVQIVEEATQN

[13] = target: CASK, O14936
[14] = target: Inadl_3, Q8NI35
[15] = target: DLG1_2, Q12959
[16] = target: T9, LRRC7, Q96NW7
T9 sequence (Q96NW7 1440-1537, limits assumed, looked up): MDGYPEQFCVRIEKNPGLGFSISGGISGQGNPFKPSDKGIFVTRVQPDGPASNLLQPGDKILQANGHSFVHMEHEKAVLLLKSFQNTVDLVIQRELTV

[17] = target: T10, SIPA1L2, Q9P2F8
T10 sequence (Q9P2F8 945-1036, limits assumed, looked up): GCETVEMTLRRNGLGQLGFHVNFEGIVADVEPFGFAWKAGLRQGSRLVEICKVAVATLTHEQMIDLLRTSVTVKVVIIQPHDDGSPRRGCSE

[18] = target: T11, DFNB31_1, Q9P202
T11 sequence (Q9P202 135-233, limits assumed, looked up): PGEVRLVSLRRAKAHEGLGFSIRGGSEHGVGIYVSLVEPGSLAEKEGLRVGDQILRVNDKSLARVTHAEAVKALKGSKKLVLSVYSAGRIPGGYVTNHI

[19] = target: T12, DFNB31_2, Q9P202
T12 sequence (Q9P202 274-371, limits assumed, looked up): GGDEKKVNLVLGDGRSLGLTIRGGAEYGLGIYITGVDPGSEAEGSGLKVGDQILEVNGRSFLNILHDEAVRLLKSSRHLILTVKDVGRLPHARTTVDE

[20] = target: SCRIB_1, Q14160
[21] = target: MAGI2_6, Q86UL8
[22] = target: MAST1, Q9Y2H9
[23] = target: T13, HTRA4, P83105
T13 sequence (P83105 378-476, limits assumed, looked up): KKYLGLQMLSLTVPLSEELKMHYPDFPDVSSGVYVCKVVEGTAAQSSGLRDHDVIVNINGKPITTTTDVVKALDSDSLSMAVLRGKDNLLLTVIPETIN

[24] = target: GRIP2_6, Q9C0E4
[25] = target: DLG1_1, Q12959

Sequence of MAGI2_6, Q86UL8 (Q86UL8 1141-1229): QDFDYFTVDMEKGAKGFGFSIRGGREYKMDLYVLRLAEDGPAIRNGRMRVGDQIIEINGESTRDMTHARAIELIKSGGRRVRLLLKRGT
Sequence of NHERF2_2, Q15599 (Q15599 142-238): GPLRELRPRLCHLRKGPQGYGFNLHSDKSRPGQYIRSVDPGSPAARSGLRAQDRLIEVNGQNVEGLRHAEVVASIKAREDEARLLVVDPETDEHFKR
Sequence of GIPC2, Q8TF65 (Q8TF65 112-203): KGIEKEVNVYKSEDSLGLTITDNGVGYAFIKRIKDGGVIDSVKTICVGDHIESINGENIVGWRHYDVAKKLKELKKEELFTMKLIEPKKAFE
Sequence of SCRIB_1, Q14160 (Q14160 718-814): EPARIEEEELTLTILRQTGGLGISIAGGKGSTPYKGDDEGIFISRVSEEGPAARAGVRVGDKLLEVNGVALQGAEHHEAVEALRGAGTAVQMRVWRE
Sequence of Inadl_3, Q8NI35 (Q8NI35 359-469): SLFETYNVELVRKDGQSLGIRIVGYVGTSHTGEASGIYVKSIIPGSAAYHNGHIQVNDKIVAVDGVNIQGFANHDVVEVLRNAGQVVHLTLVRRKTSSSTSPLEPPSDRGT
Sequence of MAST1, Q9Y2H9 (Q9Y2H9 962-1065): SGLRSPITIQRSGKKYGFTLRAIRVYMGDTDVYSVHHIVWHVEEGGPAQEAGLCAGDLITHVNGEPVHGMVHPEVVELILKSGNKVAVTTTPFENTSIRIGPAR
Sequence of CASK, O14936 (O14936 487-570): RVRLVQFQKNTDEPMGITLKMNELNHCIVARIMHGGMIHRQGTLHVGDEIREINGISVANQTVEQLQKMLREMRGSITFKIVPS
Sequence of GRIP2_6, Q9C0E4 (Q9C0E4 648-740): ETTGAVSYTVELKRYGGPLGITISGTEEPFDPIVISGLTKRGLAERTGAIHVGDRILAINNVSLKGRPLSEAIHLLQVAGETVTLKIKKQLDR
Sequence of NHERF4_2, Q86UT5 (Q86UT5 220-308): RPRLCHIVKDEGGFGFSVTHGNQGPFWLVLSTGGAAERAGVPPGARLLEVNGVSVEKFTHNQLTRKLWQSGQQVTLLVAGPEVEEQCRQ

B1: MCM7, P33993 (peptide)
chain: NASRTRITFV
[1]
  pKd: 4.28
[2]
  pKd: 5.26
[3]
  pKd: 4.12
[4]
  pKd: 3.63
[5]
  pKd: 3.53
[6]
  pKd: 4.06
[7]
  pKd: below the threshold
[8]
  pKd: 4.71
[9]
  pKd: below the threshold
[10]
  pKd: below the threshold
[11]
  pKd: below the threshold
[12]
  pKd: below the threshold
[13]
  pKd: below the threshold
[14]
  pKd: below the threshold
[15]
  pKd: 5.28
[16]
  pKd: below the threshold
[17]
  pKd: below the threshold
[18]
  pKd: below the threshold
[19]
  pKd: below the threshold
[20]
  pKd: 4.26
[21]
  pKd: 4.16
[22]
  pKd: 4.39
[23]
  pKd: 4.59
[24]
  pKd: 3.58
[25]
  pKd: 4.83

B2: EFNB3, Q15768 (peptide)
chain: QSPPNIYYKV
[1]
  pKd: 3.61
[2]
  pKd: below the threshold
[3]
  pKd: 3.72
[4]
  pKd: 3.56
[5]
  pKd: below the threshold
[6]
  pKd: 4.01
[7]
  pKd: below the threshold
[8]
  pKd: 3.47
[9]
  pKd: below the threshold
[10]
  pKd: below the threshold
[11]
  pKd: below the threshold
[12]
  pKd: below the threshold
[13]
  pKd: below the threshold
[14]
  pKd: 3.5
[15]
  pKd: below the threshold
[16]
  pKd: below the threshold
[17]
  pKd: below the threshold
[18]
  pKd: 3.55
[19]
  pKd: below the threshold
[20]
  pKd: below the threshold
[21]
  pKd: below the threshold
[22]
  pKd: 4.07
[23]
  pKd: below the threshold
[24]
  pKd: 4.4
[25]
  pKd: below the threshold

B3: SSTR5, P35346 (peptide)
chain: ANGLMQTSKL
[1]
  pKd: 5.15
[2]
  pKd: 4.22
[3]
  pKd: below the threshold
[4]
  pKd: 4.64
[5]
  pKd: below the threshold
[6]
  pKd: 3.65
[7]
  pKd: below the threshold
[8]
  pKd: below the threshold
[9]
  pKd: below the threshold
[10]
  pKd: below the threshold
[11]
  pKd: below the threshold
[12]
  pKd: below the threshold
[13]
  pKd: below the threshold
[14]
  pKd: below the threshold
[15]
  pKd: below the threshold
[16]
  pKd: below the threshold
[17]
  pKd: below the threshold
[18]
  pKd: 4.34
[19]
  pKd: below the threshold
[20]
  pKd: 4.06
[21]
  pKd: below the threshold
[22]
  pKd: 4.63
[23]
  pKd: 3.7
[24]
  pKd: below the threshold
[25]
  pKd: below the threshold

B4: DENND5A, Q6IQ26 (peptide)
chain: ETSLVKGIDI
[1]
  pKd: below the threshold
[2]
  pKd: below the threshold
[3]
  pKd: 3.76
[4]
  pKd: 3.48
[5]
  pKd: below the threshold
[6]
  pKd: below the threshold
[7]
  pKd: 3.54
[8]
  pKd: 3.47
[9]
  pKd: below the threshold
[10]
  pKd: below the threshold
[11]
  pKd: below the threshold
[12]
  pKd: below the threshold
[13]
  pKd: below the threshold
[14]
  pKd: 3.53
[15]
  pKd: below the threshold
[16]
  pKd: below the threshold
[17]
  pKd: below the threshold
[18]
  pKd: below the threshold
[19]
  pKd: below the threshold
[20]
  pKd: below the threshold
[21]
  pKd: below the threshold
[22]
  pKd: below the threshold
[23]
  pKd: 4.13
[24]
  pKd: 3.55
[25]
  pKd: 3.67
